Assay results taken from paper PMC9811684 (2023).

Legend:
Test in all cases: multimer staining
[1] = molecular target: T1, HKU1 spike protein peptide on HLA-A*24:02 (human)
T1 peptide: MYVKWPWYVW

[2] = molecular target: T2, SARS-CoV-2 spike protein (SPIKE) peptide on HLA-A*24:02 (human)
T2 peptide: QYIKWPWYIW

[3] = molecular target: T3, NL63 spike protein peptide on HLA-A*24:02 (human)
T3 peptide: NYIKWPWWVW

[4] = molecular target: T4, 229E spike protein peptide on HLA-A*24:02 (human)
T4 peptide: TYIKWPWWVW

[5] = molecular target: T5, OC43 spike protein peptide on HLA-A*24:02 (human)
T5 peptide: YYVKWPWYVW

[6] = molecular target: T6, SARS-CoV-1 spike protein peptide on HLA-A*24:02 (human)
T6 peptide: QYIKWPWYVW

[7] = molecular target: T7, SARS-CoV-2 spike protein (SPIKE) peptide on HLA-A*23:01 (human)
T7 peptide: QYIKWPWYIW

Measured: binding result

B1: TCRQYI (TCR)
alpha TRAV20*01 TRAJ32*01 CDR3: CAALNYGGATNKLIF
beta TRBV4-3*01 TRBJ2-7*01 CDR3: CASSPSGGAYEQYF
recognises: all assays above
